Source: paper PMC10400037, “Novel players in organogenesis and flavonoid biosynthesis in cucumber glandular trichomes”

T1: MBP-CsTBH (TINY BRANCHED HAIR, HD-ZIP) (Cucumis sativus, UniProt A0A0A0LED8 1-240)
T1 sequence: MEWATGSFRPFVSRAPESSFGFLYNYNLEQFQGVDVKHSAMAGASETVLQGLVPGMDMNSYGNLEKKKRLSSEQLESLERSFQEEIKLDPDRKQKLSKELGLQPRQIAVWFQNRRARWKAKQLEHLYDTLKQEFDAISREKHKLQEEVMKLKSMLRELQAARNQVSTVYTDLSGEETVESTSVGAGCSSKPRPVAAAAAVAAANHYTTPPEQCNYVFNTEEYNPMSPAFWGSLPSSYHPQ

B1: CsF3H promoter probe (dsDNA)
DNA 1: GATTTGAGAAAATTATTGGGCTGGATTGT
DNA 2: ACAATCCAGCCCAATAATTTTCTCAAATC
B2: CsFLS promoter probe (dsDNA)
DNA 1: AATTTAAAATAATTATTGGGATTTCAAAC
DNA 2: GTTTGAAATCCCAATAATTATTTTAAATT
B3: Cs4CL promoter probe (dsDNA)
DNA 1: CTTCCAAATTAATTATTGTTTTATGCAAA
DNA 2: TTTGCATAAAACAATAATTAATTTGGAAG

Target: T1, MBP-CsTBH (TINY BRANCHED HAIR, HD-ZIP)
Assay: EMSA; EMSA kit (Beyotime GS009) reaction buffer, room temperature, 6% native PAGE; salt and pH not stated
Settings: protein: recombinant; chain copies: 2; blunt

Row | Binder | binding result
1 | B1 | binds
2 | B2 | binds
3 | B3 | binds
